In patent US20140287419A1, “Compositions Having Dicamba Decarboxylase Activity and Methods of Use” (priority 2013, published 2014):

test: 14C assay with IPTG-induced recombinant E. coli cells (14CO2 capture from [14C]-carboxyl-labeled dicamba); conditions: E. coli cell assay, 108 sequences tested

| Molecule | decarboxylation activity of dicamba |
| --- | --- |
| SEQ ID NO:50: hypothetical protein SSMG_03140, Streptomyces sp. AA4 (protein, listed as Streptomyces sp.) MARIVTLEEHWTDPAVTAAGMPNLLDHVPGYAAAFDPDTGMPYPRHPELLEDLGAARIADMDRHGITTQVLSLVNTFLPADVAPRLTAAANDAMAAAVEAFPGRFAAFATLPTAVPGAAADELRRCVGELGFVGTMIMGRTDGEFLDQPRFDPILRAASDLSVPVYLHPAPPPVAVSEASYAGGLSPAVSAAFRLAAWGWHQETAVHLLHLVLAGVLDRYPGLQFVLGHWGEFIPFYLDRLDESMPRRMTGLDRTFREYFRDNVFITPSGMFSQAQLRYCADTVGTDRIIHSVDFPMLGNEGAVSFLTDSHLSREDQEKIAHGNADALLGLG | showed decarboxylation activity of dicamba |
| SEQ ID NO:51: TIM-barrel fold metal-dependent hydrolase, Mycobacterium gilvum Spyr1 (protein, listed as Mycobacterium gilvum) MARVIAIEEHYAHPGLQPAEALANLRKHPQLARIQDKLEDLGAGRLADMDAAGIDMQVLSHTVPGAEALPAAQAVDVVRQTNDDLAEVIAAHPDRFAGFAALPMRDPQAAATELQRAVGTLGFCGAMINGLIEGRFLDHPDFTPLLSTAADLGVPLYLHPSFPPPQVAQIYFGGLPPVLADLLATAGWGWHAETALHVLRLISTGVFDRLPELRVIVGHMGEMIPFALARIDTVLSPMTELRQPVAQYFQTNVWFTTSGYTTFPPLQCALSTVGIDRLIFSVDYPYTDNASARALLDTAPISPVDREKLAHATVEALLRV | showed decarboxylation activity of dicamba |
| SEQ ID NO:52: putative decarboxylase, Streptomyces sp. SA3_actG (protein, listed as Streptomyces sp.) MAKIIALEEHFSDPAVAKAGAARAQALSPGFAASYSPASGLPYSPSPEVLENLAEKRLADMDAGGITMQVLSGLSAQTVPADVAPALVAGSNDKAAAAVRAHPDRFAAFAALPTAAPEAAVAELDRSVNELGFVGTLIMGRTEGEFLDAPRFEPILARAAALKVPVFLHPGVPPREITDSNYAAGLPTGIGTRLQTAAWGWHQETAVHFLHLVHSGVLDRYPDLQFILGHWGETIPFYLDRVDEALPQRATGLDRSFHEYFRENVYLAPSGMWSQAQLRFCLETFPLERIVFAVDYPFIGNEGAVPFLEKAELPEADKRKIAHENAERLLGL | showed decarboxylation activity of dicamba |
| SEQ ID NO:53: amidohydrolase, Granulicella tundricola MP5ACTX9 (protein, listed as Granulicella tundricola) MARTITLEEHFVTDSFLRATGAYDKPAPPWLAQLQPKLLDLGDGRIAAMDEAGIDLQVLSLAALGFDALDAATATPLVHDINDELAAAVRANPTRLAAFASLALKDPQSAARELERAIQKLGFRGVLLDGTTDGLFLDDPRFTPVFEAAVALNVPIYLHPAPPPESVFDTYFTGLPEGVGQMLSIAGWGWHAETALHTLRLITNGVFDRYPTLQLIIGHMGEMLPMALARTSKALSHAARLRQPVAAYFQSNIHLTTSGYFTQPPLRCALDVVGIDRLMFSIDYPFSANTLGRDYLTELEQTLTPEDLAKLIHRNAESLLNLS | showed decarboxylation activity of dicamba |
| SEQ ID NO:54: putative decarboxylase, Streptomyces sp. Tu6071 (protein, listed as Streptomyces sp.) MAKIIALEEHFSDPAVAKAGAARAQALSPGFAASYSPASGLPYSPSPEVLENLAEKRLADMDAGGITMQVLSGLGAQTVPADVAPALVAGSNDKAAAAVRAHPDRFAAFAALPTAAPEAAVAELDRSINELGFVGTLIMGRTEGEFLDAPRFEPILARAAALKVPVFLHPGVPPREITDSNYAAGLPTGIGTRLQTAAWGWHQETAVHFLHLVHSGVLDRYPGLQFILGHWGEMIPFYLDRVDEALPQRATGLDRSFHEYFRENVYLAPSGMWSQAQLRFCLETVPLERIVFAVDYPFIGNEGAVPFLEKAELPEADKRKIAHENAERLLGL | showed decarboxylation activity of dicamba |
| SEQ ID NO:2: o-pyrocatechuate decarboxylase, Serratia sp. AS12 (protein, listed as Serratia sp.) MAKIICLEEHTLDKALVMASMPAALEQAPFLSDWGKTVTDGNLPDRSRPQIEKNDLINIKGADIGRGRLDDMDVAGITMQVLSVGGFPHLISAAEGVDLNRAANDRLADAVNAHPDRFAAFATLPWAQPDSAEKELERAVKELGFKGALLNGRPSTHFLDHPDYDGLLARFNALGVPLYLHPGLPVRSVQQAYYGGFSDEVTARLSMFGWGWHHEAGIHLLRLILSGAFDKYPNLQVISGHWGEMLPFWLQRLDDSLPQAATGLRRTIAQTFKEQVYVTPSGMLTLPHFQFIYALLGAERIIFSVDYPYQTLDGVKAFIQSLPVPEEAKEAIAFRNAERLLGLTS | showed decarboxylation activity of dicamba |
| SEQ ID NO:55: o-pyrocatechuate decarboxylase, Serratia sp. AS12 (protein, listed as Serratia sp.) MAKIICLEEHTLDKALVMASMPAALEQAPFLSDWGKTVTDGNLPDRSRPQIEKNDLINIKGADIGRGRLDDMDVAGITMQVLSVGGFPHLISAAEGVDLNRAANDRLADAVNAHPDRFAAFATLPWAQPDSAEKELERAVKELGFKGALLNGRPSTHFLDHPDYDGLLARFNALGVPLYLHPGLPVRSVQQAYYGGFSDEVTARLSMFGWGWHHEAGIHLLRLILSGAFDKYPNLQVISGHWGEMLPFWLQRLDDSLPQAATGLRRTIAQTFKEQVYVTPSGMLTLPHFQFIYALLGAERIIFSVDYPYQTLDGVKAFIQSLPVPEEAKEAIAFRNAERLLGLTS | showed decarboxylation activity of dicamba |
| SEQ ID NO:56: hypothetical protein EAE_19025, Enterobacter aerogenes KCTC 2190 (protein, Enterobacter aerogenes) MAKIICLEEHYLDSELGRACMPVALEQAPFLGDWGKTVADGHNPDRSRPQIEKNALINAKGADLGSRRLRDMDEAGITLQILSVGGFPQLAPEDEAVTLNTAANDRLAEAVRNHPDRFAAFATLPWAQPKDAENELVRAVEKLGFKGALLNGRPSSCFLDHPDYDSLLSRFNKLNVPLYLHPGLPLKSVQQAYFTGFSAEVNARLSMFGWGWHHEAGIHLLRLMLSGAFDKYPNMQVISGHWGEMLPFWLQRLDDSLPLAATGLSRTLTRTFQEHVYVTPSGMLTLPHFKFIYELMGAERILFSVDYPYQTLDGVKTFIDSLPVNKAEKEAIAFRNAERLLGITA | showed decarboxylation activity of dicamba |
| SEQ ID NO:57: amidohydrolase, Collimonas fungivorans Ter331 (protein, Collimonas fungivorans) MAKLICVEEHVLDPAVGAATQSLVRAEAPYLPDWGSRVLDGRHVADRSRPHVIAPSESARKALEMGEPRLADMDAASIDMQVLSYGGFPQLLPAAQAIDLNRAANDKLALAAQAHPARFAGFATLPWQAPEAAARELERAVKQLGLKGALINGRPGDTFLDDARYAPILAAFDELKVPLYVHPGLPLPAVQAPYYGGFERELSARLAMFAWGWHNEAGIQVVRMLLAGVFDRHPRLQLISGHWGEMVPFFLQRLEDSIPQEASGLQRPIVQTYREHVYISPSGMFTLPHFQFIHALMGAQRILYSIDYPYQSLDGARAFIERLPISDTDKALIAHRNAERLLHL | showed decarboxylation activity of dicamba |
| SEQ ID NO:58: amidohydrolase 2, Mycobacterium colombiense CECT 3035 (protein, Mycobacterium colombiense) MARVIALEEHYATTEFLRGPGTWLASRPGIVEPAGDLGDGRIAAMDQAGVDLAVLSLAAPGVEQLDPDDAVRLARDCNDQLAAAVRRYPDRLAGFATVPTSAPDRAADELERAVRGLGFPGAVINGHSRGRYLDDPFFEPVLARAAELQAPIYLHPTIPPAGVIESSYAGFAEPVTFALATVGWGWHINTATHALRMILGGVFDRHPSLQMIIGHMGEATSFMLPRFDATLKPELTGLNHPVSSYLRENFHYTFANFNDHATYANLVAQVGIERVAFSADYPFGSMVDARAFLDGLPLSDDERAAISHRNAEKLLGL | showed decarboxylation activity of dicamba |
| SEQ ID NO:79: hypothetical protein PTT_18638, Pyrenophora teres f. teres 0-1 (protein, Pyrenophora teres) MATTTTPSTLIATLESHLTPTLAFTSPTTSPTQPALHLIPPTTLTKLRNLGPGRVKDMHMLGHSRQIISHIPVAAPPQICSRFNDAIHAATMTNTAKFSVLAVLPTDGMEAAKELARCVSKYRFVGGVIGLNRGLRINGEGWEELWGLAERLRIPIMFREMWPLAFEIVDYQHHLPYSALGPILTQLHTSHTSSPLPLVRLYLSSVFDHYPSLRLVLAHPGSLPSLVPRIESLINSIPATDKPKRSFLDVWQHNIYLTTADAQDMSSLRALLEQIPVDRVLYASNYPFEERGNELMNELRESEFLTNIEWERVAWVNAETLFNLKEAGTKEARQLTTIPSSRS | showed decarboxylation activity of dicamba |
| SEQ ID NO:81: 2-amino-3-carboxymuconate-6-semialdehyde decarboxylase, Verticillium dahliae VdLs.17 (protein, listed as Verticillium dahliae) MAASTKPKVVDIHTHMYPPSYIDILTSRTAIPVVRTFPQAADPRLILLDAEQQALDAALQDPTAKPPGRPLTSHYASLDQKIHFMDTHSIDISVVSLANPWLDFIEPKEAAATARSVNDEFEAMCASQPGRLFFFAALPLTAPLPALLEAVRHVAELEHCRGVILGTSGLGSGLDDPELVPVLEAVAAAALTVFLHPHYGLPNDVWGPRASAEYGHVLPLALGFPMETTIAVARMYLAGVFDRVPALRMLLAHSGGTLPFLAGRIESCILHDGQLVAEGKVGAARRTIWDVLREQVYLDAVIYSEIGLKAAIAASGGADRLMFGTDHPFFPPLGTDEQAKKESRINAGGSRPMITGNAMINGHGGLCNHITQSDYQDVVL | showed decarboxylation activity of dicamba |
| SEQ ID NO:87: amidohydrolase, Novosphingobium sp. PP1Y (protein, listed as Novosphingobium sp.) MASDIATAADLQTGGRQGYLRIATEEAFATRDQIDVYLRMVRDGTADRGMTSLWGFYAQSPSARATQIIERLLDLGEQRLADMDAAGIDKAVLALTSPGVQPLLDMEEARRIAGNANDRLAERCAAHPDRFIGMTAVAPQDPQWSAREILRGATQLGFKGVQINSHTQGRYLDEPFFDPIFRALGDVGQPLYIHPGTPPDSMIGPLLDAGLDGAIYGFGVETGMHLLRLITAGIFDRYPDLQIMVGHMGEALPYWLYRLDYMHQAGIRSQRYERMRPLKRTIAGYFRSNVLVTCSGMAWEPAIQFARQVMGEDRVMYAMDYPYQYEADEVRALDVMDLSPESKRKFFQTNAERWFDL | showed decarboxylation activity of dicamba |
